Test results: patent US6989144

Tests used:
Assay in all cases: cell ELISA: soluble GPVI-Fc (0.45-1000 nM) competing with GPVI-U937 cells for 100 nM scFv
scFv clone C3 = target: T1, scFv clone C3
T1 construct: human scFv from a phage display library

scFv clone A10 = target: T2, scFv clone A10
T2 construct: human scFv from a phage display library; detected through an HA tag, purified through a polyHis tail

scFv clone B4 = target: T3, scFv clone B4
T3 construct: human scFv from a phage display library

- IC50 (scFv clone C3): 38 nM
- IC50 (scFv clone A10): 4.5 nM
- IC50 (scFv clone B4): 5 nM
B1: soluble human GPVI-Fc (extracellular domain of GPVI fused to Fc; hGPVI-human IgG1Fc) (Fc fusion)
chain: QSGPLPKPSLQALPSSLVPLEKPVTLRCQGPPGVDLYRLEKLSSSRYQDQAVLFIPAMKRSLAGRYRCSYQNGSLWSLPSDQLELVATGVFAKPSLSAQPGPAVSSGGDVTLQCQTRYGFDQFALYKEGDPAPYKNPERWYRASFPIITVTAAHSGTYRCYSFSSRDPYLWSAPSDPLELVVTGTSVTPSRLPTEPPSSVAEFSEATAELTVSFTNKVFTTETSRSITTSPKESDSPAGPARQYYTKGN
notes: also called hGPVI-hIgG1Fc; hrGPVI; not shown: human IgG1 Fc
